# From IntAct's records for PubMed 28559451
# B1: UL16-binding protein 6 (Homo sapiens), Q5VY80 (parent)
# chain: MAAAAIPALLLCLPLLFLLFGWSRARRDDPHSLCYDITVIPKFRPGPRWCAVQGQVDEKTFLHYDCGNKTVTPVSPLGKKLNVTMAWKAQNPVLREVVDILTEQLLDIQLENYTPKEPLTLQARMSCEQKAEGHSSGSWQFSIDGQTFLLFDSEKRMWTTVHPGARKMKEKWENDKDVAMSFHYISMGDCIGWLEDFLMGMDSTLEPSAGAPLAMSSGTTQLRATATTLILCCLLIILPCFILPGI
# Variants of: B1
# Conditions: with nkg2d_human KLRK1, P26718
# Chain of nkg2d_human KLRK1, P26718 (P26718 whole entry): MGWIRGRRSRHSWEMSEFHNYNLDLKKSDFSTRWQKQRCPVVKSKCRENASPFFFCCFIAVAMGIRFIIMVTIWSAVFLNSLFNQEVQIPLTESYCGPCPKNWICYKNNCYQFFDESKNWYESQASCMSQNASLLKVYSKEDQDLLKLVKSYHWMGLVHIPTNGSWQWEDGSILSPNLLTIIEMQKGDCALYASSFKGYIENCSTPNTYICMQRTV
row,effect of a mutation on the interaction,Variant
1,decreasing interaction strength,MAAAAIPALLLCLPLLFLLFGWSRARRDDPHSLCYDITVIPKFRPGPRWCAVQGQVDEKTFLHYDCGNKTVTPVSPLGKKLNVTMAWKAQNPVLREVVDILTEQLRDIQLENYTPKEPLTLQARMSCEQKAEGHSSGSWQFSIDGQTFLLFDSEKRMWTTVHPGARKMKEKWENDKDVAMSFHYISMGDCIGWLEDFLMGMDSTLEPSAGAPLAMSSGTTQLRATATTLILCCLLIILPCFILPGI [L106R]
